Results reported in publication PMC9561379.

Key:
[1] = target: H2B S112C-MB nucleosome (MB-modified H2B S112C) (Xenopus)
[2] = target: asymmetric nucleosome MB/WT (MB-modified H2A/H2B S112C dimer in the upstream position, WT dimer downstream) (Xenopus) (UniProt P06897)
[3] = target: asymmetric nucleosome WT/MB (WT dimer in the upstream position, MB-modified H2A/H2B S112C dimer downstream) (Xenopus) (UniProt P06897)
[4] = target: asymmetric nucleosome MB/WT (MB-modified H2A/H2B S112C dimer in the upstream position, WT dimer downstream) (Xenopus) (UniProt P06897); assay: native gel or EMSA; asymmetrically modified nucleosomes on Cy5-labelled DNA incubated with or without streptavidin, 5% acrylamide nucleoprotein gels, imaged by fluorography
[5] = target: asymmetric nucleosome WT/MB (WT dimer in the upstream position, MB-modified H2A/H2B S112C dimer downstream) (Xenopus) (UniProt P06897); assay: as above
[6] = target: H2A G2C-MB nucleosome (100% MB-modified H2A G2C, both H2A N-tails biotinylated) (Xenopus); assay: native gel or EMSA; biotin-modified or unmodified nucleosomes (radiolabelled 601 DNA) incubated with streptavidin in TE buffer for 10 min at room temperature, run on 6% native PAGE (legend of Figure 2B: 5%); mobility shift

Sequence of streptavidin (P22629 25-183): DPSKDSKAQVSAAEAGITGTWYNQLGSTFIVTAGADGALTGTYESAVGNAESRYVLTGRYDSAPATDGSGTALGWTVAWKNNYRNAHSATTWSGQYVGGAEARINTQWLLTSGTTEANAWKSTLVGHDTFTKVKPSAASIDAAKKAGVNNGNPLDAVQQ

Row | Substance | rate of HhaI digestion during RSC remodeling, nucleosomes with one streptavidin bound (1SA) against unbound nucleosomes [1] [fold slower] | rate of HhaI digestion during RSC remodeling, nucleosomes with two streptavidins bound (2SA) against the unbound control [1] [fold slower] | fraction of RSC-mobilized, streptavidin-bound nucleosomes protected from Hind III digestion at the downstream end (about 40% without streptavidin) [2] [%] | fraction of RSC-mobilized, streptavidin-bound nucleosomes protected from Hind III digestion at the downstream end (about 40% without streptavidin) [3] [%] | stoichiometry N (streptavidin per nucleosome) [4] | stoichiometry N (streptavidin per nucleosome) [5] | stoichiometry N (streptavidin per nucleosome) [6]
1 | RSC (Remodels the Structure of Chromatin) complex, yeast (from UniProt P32597 1-1359; Q06168 1-426; Q06488 1-889; Q02206 1-625; Q07979 1-502; Q12406 1-477; Q05123 1-467) | 2 | 20 | 80 | 20 | – | – | –
2 | streptavidin (from UniProt P22629 25-183) (natural protein) | – | – | – | – | 1 | 1 | 1
